From PMC7195466, “A common allosteric mechanism regulates homeostatic inactivation of auxin and gibberellin” (Nature Communications, 2020)

Target: the molecule itself
Assay: cell-based or functional assay

B1: Oryza sativa gibberellin 2-oxidase 3 (OsGA2ox3), wild type (enzyme, rice (Oryza sativa), UniProt Q8S0S6 1-327, looked up)
chain: MVVLAGPPAVDHIPLLRSPDPGDVFSGVPVVDLGSPGAARAVVDACERYGFFKVVNHGVATDTMDKAESEAVRFFSQTQPDKDRSGPAYPFGYGSKRIGFNGDMGWLEYLLLALDDASLADACTVPSCAVFRAALNEYISGVRKVAVRVMEAMSEGLGIAQADALSALVTAEGSDQVFRVNHYPPCRALQGLGCSVTGFGEHTDPQLVSVLRSNGTSGLQIALRDGQWVSVPSDRDSFFVNVGDSLQVLTNGRFKSVKHRVVANSLKSRVSFIYFGGPPLAQRIAPLPQLLGEGEQSLYKEFTWDEYKKAAYKSRLGDNRLAQFEKK
For B1, the “Vmax of the tetramer and dimer against the monomers (forms separated by gel filtration)” value was over 3 fold.
